Laboratory results published in paper PMC7064775, “Cyclic di-GMP Signaling in Bacillus subtilis Is Governed by Direct Interactions of Diguanylate Cyclases and Cognate Receptors” (mBio, 2020).
Blank lines part the entries; values can stand above or below the molecule they belong to.

T1: GST-His6-DgcK-ΔN175 (Bacillus subtilis NCIB 3610, UniProt P54595 176-359)
T1 construct: Diguanylate cyclase DgcK of Bacillus subtilis NCIB 3610, soluble domain, residues 176 to 359 (construct pAT02a); also called pAT02a; source: E. coli BL21(DE3), purified (Ni-NTA, SEC); not shown: GST, N-terminal, kept; His6, N-terminal, kept
T1 sequence (looked up): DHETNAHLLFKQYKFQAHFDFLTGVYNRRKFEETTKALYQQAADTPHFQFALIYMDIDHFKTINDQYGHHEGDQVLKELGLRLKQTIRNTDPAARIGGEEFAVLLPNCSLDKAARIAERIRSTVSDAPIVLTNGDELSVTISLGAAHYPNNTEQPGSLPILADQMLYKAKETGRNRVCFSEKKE

T2: DgcP-StrepII (Bacillus subtilis NCIB 3610, UniProt O34325 1-579)
T2 construct: soluble diguanylate cyclase DgcP of Bacillus subtilis NCIB 3610, residues 1 to 579, full length (construct pPB25); also called pPB25; source: E. coli BL21(DE3), purified (StrepTrap HP, SEC); not shown: StrepII, C-terminal, kept
T2 sequence (looked up): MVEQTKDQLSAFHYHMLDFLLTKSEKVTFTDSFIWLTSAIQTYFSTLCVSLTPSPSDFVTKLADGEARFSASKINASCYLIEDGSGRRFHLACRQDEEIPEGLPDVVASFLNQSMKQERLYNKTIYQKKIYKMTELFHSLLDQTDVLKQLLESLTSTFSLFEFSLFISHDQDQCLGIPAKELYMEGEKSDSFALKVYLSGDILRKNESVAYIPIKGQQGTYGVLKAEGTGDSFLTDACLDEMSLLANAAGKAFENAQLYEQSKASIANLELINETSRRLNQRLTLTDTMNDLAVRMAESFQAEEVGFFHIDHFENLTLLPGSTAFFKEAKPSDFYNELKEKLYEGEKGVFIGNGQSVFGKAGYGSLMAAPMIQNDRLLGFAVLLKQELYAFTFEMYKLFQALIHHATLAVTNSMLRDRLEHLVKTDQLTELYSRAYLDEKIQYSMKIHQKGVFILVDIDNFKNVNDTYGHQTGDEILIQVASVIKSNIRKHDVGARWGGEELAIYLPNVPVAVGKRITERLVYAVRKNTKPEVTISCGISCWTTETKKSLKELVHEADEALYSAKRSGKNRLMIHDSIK

B1: GST-YdaK-ΔN111 (domain or fragment, Bacillus subtilis NCIB 3610, UniProt P96585 112-283, looked up)
chain: DITAELRRSMTRLQSEIKSYVAVDRVTGFDNKQRMKLELSEEIKRAERYGNSFVFLLLHMHYFKEFKSLYGEKETDRLFQYVGQQIRTSVRETDKKFRPSDERIGIVLTHTPAEHMPAVLTKLKKQLDTYQLENGKYVSLTFHVCYLPYRNDIQTADQFLEELENEMMMNEL
notes: c-di-GMP receptor YdaK of Bacillus subtilis NCIB 3610, soluble domain (degenerated GGDEF domain), residues 112 to 283 (construct pAT03c); also called pAT03c; source: E. coli BL21(DE3), purified (GSTrap FF, SEC); not shown: GST, N-terminal, kept
B2: His6-YdaK-ΔN111 (domain or fragment, Bacillus subtilis NCIB 3610, UniProt P96585 112-283, looked up)
chain: B1 chain
notes: c-di-GMP receptor YdaK of Bacillus subtilis NCIB 3610, soluble domain, residues 112 to 283 (construct pAT03b); also called native YdaK; pAT03b; source: E. coli BL21(DE3), purified (Ni-NTA, SEC); not shown: His6, N-terminal, kept
B3: GST-His6-YdaK-ΔN111 (domain or fragment, Bacillus subtilis NCIB 3610, UniProt P96585 112-283, looked up)
chain: B1 chain
notes: c-di-GMP receptor YdaK of Bacillus subtilis NCIB 3610, soluble domain, residues 112 to 283 (construct pAT03a); also called pAT03a; not shown: GST, N-terminal, kept
B4: GST-His6-DgrA (natural protein, Bacillus subtilis NCIB 3610, UniProt P38491 1-217, looked up)
chain: MIEIGENVLLEYIEENELKKAKSKAVSIENNELLIAYPVDVVTGRTVILHNDMEVTVEFVGKDEVPYRFISRIKGKVKDKLQMICLEMPPREKMKRIQRRQYVRTDAVLDVQIQPGNEEEIRTLSYNISAGGIAVVLADGLSFQSGESLRLIIRLPEEEHTRQIETEAVVRRIFNDPKSEKRKMTLEYSEIAAGDQQALLQYCIRRQLNKRRKARME
notes: PilZ domain c-di-GMP receptor DgrA of Bacillus subtilis NCIB 3610, residues 1 to 217, full length (construct pPB48); also called GST-His-DgrA; PilZ protein DgrA; source: E. coli BL21(DE3), purified (Ni-NTA, SEC); not shown: GST, N-terminal, kept; His6, N-terminal, kept
B5: His6-DgcK-ΔN175 (domain or fragment, Bacillus subtilis NCIB 3610, UniProt P54595 176-359, looked up)
chain: T1 sequence (looked up)
notes: Diguanylate cyclase DgcK of Bacillus subtilis NCIB 3610, soluble domain, residues 176 to 359 (construct pAT02b); also called His-DgcK-ΔN175; soluble domain of DgcK; source: E. coli BL21(DE3), purified (Ni-NTA, SEC); also coexpressed with YdaK-ΔN111 in E. coli BL21(DE3), in lysate; not shown: His6, N-terminal, kept

Assays:
DgcK-ΔN175 = target: T3, DgcK-ΔN175 (Bacillus subtilis, UniProt P54595); experiment: HPLC of nucleotide co-purified with the denatured protein; assay type: binding; conditions: ligand co-purified from E. coli host
T3 construct: soluble GGDEF domain, residues 176 to 359 (6 TM helices removed); N-terminal His6 or GST-His6, from E. coli BL21(DE3)

YdaK-ΔN111 [1] = target: T4, YdaK-ΔN111 (Bacillus subtilis, UniProt P96585); experiment: hydrogen-deuterium exchange mass spectrometry; assay type: binding; conditions: 50 µM protein, 1 mM c-di-GMP; pH 7.5, 20 mM MgCl2, 25 °C; I-site (RXXD)
T4 construct: soluble degenerate GGDEF domain, residues 112 to 283 (4 TM helices removed), from E. coli BL21(DE3)

YdaK-ΔN111 [2] = target: T5, YdaK-ΔN111 (Bacillus subtilis, UniProt P96585, R202A); experiment: hydrogen-deuterium exchange mass spectrometry; conditions: 50 µM protein, 1 mM c-di-GMP; pH 7.5, 20 mM MgCl2, 25 °C; I-site mutant, tested for loss of binding
T5 construct: soluble degenerate GGDEF domain, residues 112 to 283 (4 TM helices removed), from E. coli BL21(DE3)
T5 sequence (P96585 112-283 R202A): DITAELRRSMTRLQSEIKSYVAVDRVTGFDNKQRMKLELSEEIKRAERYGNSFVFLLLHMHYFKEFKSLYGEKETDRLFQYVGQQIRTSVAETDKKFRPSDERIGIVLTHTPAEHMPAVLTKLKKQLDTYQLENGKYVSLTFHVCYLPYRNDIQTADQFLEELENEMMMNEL

His6-DgcK-ΔN175 [3] = target: B5; experiment: pull-down; 2 nmol His6-DgcK-ΔN175 immobilised on nickel-Sepharose beads, 20 nmol prey, with or without added c-di-GMP; buffer A (20 mM HEPES-Na pH 7.5, 250 mM NaCl, 20 mM MgCl2, 20 mM KCl, 0.05% Tween); elution with 500 mM imidazole; Coomassie-stained SDS-PAGE; conditions: both partners purified
GST-His6-DgcK-ΔN175 = target: T1, GST-His6-DgcK-ΔN175; experiment: pull-down; 2 nmol GST-His6-DgcK-ΔN175 immobilised on glutathione-Sepharose 4B, 20 nmol His6-YdaK-ΔN111 or its R202A variant, with or without added c-di-GMP; 4°C, buffer A; Coomassie-stained SDS-PAGE; conditions: both partners purified
His6-DgcK-ΔN175 [4] = target: B5; experiment: pull-down; 2 nmol GST-His6-YdaK-ΔN111 (or GST) immobilised on glutathione-Sepharose 4B, 20 nmol His6-DgcK-ΔN175, with or without added c-di-GMP; 4°C, buffer A (20 mM HEPES-Na pH 7.5, 250 mM NaCl, 20 mM MgCl2, 20 mM KCl, 0.05% Tween); Coomassie-stained SDS-PAGE; conditions: both partners purified
DgcP-StrepII = target: T2, DgcP-StrepII; experiment: pull-down; 2 nmol DgcP-StrepII immobilised on Strep-Tactin-Sepharose, 20 nmol GST-His6-DgrA, with or without 2 mM c-di-GMP; buffer A; elution with 50 mM D-biotin; Coomassie-stained SDS-PAGE; conditions: both partners purified
GST-His6-DgrA = target: B4; experiment: pull-down; 2 nmol GST-His6-DgrA (or GST control) immobilised on glutathione-Sepharose beads, 20 nmol His6-DgcK-ΔN175, with or without 2 mM c-di-GMP; 4°C, buffer A; Coomassie-stained SDS-PAGE; conditions: both partners purified

loading (DgcK-ΔN175): ~ 25%
Molecule: Nc1nc2c(ncn2[C@@H]2O[C@@H]3COP(=O)(O)O[C@H]4[C@@H](O)[C@H](n5cnc6c(=O)[nH]c(N)nc65)O[C@@H]4COP(=O)(O)O[C@H]3[C@H]2O)c(=O)[nH]1 [c-di-GMP]
decrease in H/D exchange (YdaK-ΔN111 [1]): presence of c-di-GMP resulted in a strong decrease in H/D exchange in many parts of YdaK | no alterations in HDX (YdaK-ΔN111 [2]): indicating the inability of c-di-GMP to bind to this variant

Molecule: B1
binding result (His6-DgcK-ΔN175 [3]): binds

Molecule: B2
binding result (GST-His6-DgcK-ΔN175): binds

Molecule: B3
binding result (His6-DgcK-ΔN175 [4]): binds

Molecule: B4
binding result (DgcP-StrepII): binds

Molecule: B5
binding result (GST-His6-DgrA): binds
